From patent US12570725 (DUKE UNIVERSITY, dated 2026)

Tests used:
Assay in all cases: cell-based or functional assay
[1] = target: Dengue virus serotype 4 virion (Dengue virus serotype 4)
[2] = target: Dengue virus serotype 1 virion (Dengue virus serotype 1)
[3] = target: Dengue virus serotype 2 virion (Dengue virus serotype 2)
[4] = target: Dengue virus serotype 3 virion (Dengue virus serotype 3)

Measured: FRNT50

B1: 119-1-D7 (antibody, V domains shown)
VH: EVQLVESGGGLVKPGGSLRLSCVASGFTFNIYNMNWVRQAPGRGLEWVSSISLSSSYIDYADSVEGRFTISRDNAKNSLSLQMNSLKAEDTAVYYCARGRRGEWLVLHDAFDLWGQGTLVTVSS
VL: EIVLTQSPDTLSLSPGEGATLSCRASRTITSTYLAWYQQKPGQAPRLLMYSVSTRAPGIPDRFSGSGSGTDFTLTISRLEPEDFAVYFCQQYGSTPPYTFGQGTKLEIR
> 5 µg/mL: all assays above
